Values quoted from earlier work, collected in paper PMC3447994.

Molecular target: IgG Fc Fc (Homo sapiens) [IgG part: P01857]

FcγRIIIa, sequence (P08637 17-254): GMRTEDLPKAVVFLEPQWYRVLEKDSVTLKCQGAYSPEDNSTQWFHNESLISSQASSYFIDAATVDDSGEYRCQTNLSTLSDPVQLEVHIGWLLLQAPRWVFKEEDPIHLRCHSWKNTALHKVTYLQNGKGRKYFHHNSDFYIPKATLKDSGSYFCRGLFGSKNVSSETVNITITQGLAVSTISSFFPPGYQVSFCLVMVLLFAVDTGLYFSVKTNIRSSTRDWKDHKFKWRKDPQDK

In the case of FcγRIIIa (from UniProt P08637), the Kd is listed as 2 µM.
